This test has as its target T1, HD_(N-TIMP2,V3) bi-specific heterodimer (N-TIMP2 fused by a linker to V3, the engineered soluble …).
T1 construct: flexible linker; Order on the chain: N-TIMP2, linker, V3, human IgG1 Fc, 6xHis; Vector pFUSE-hIgG1e3-Fc1; Glycosylated; also called bi-specific fusion protein; source: HEK293F, transiently transfected, secreted, purified (Ni-NTA, gel filtration); not shown: Fc (human IgG1), C-terminal, kept
As to the kind of experiment: BLI; Octet Red; HD_(N-TIMP2,V3) or V3 loaded on Protein A sensors (10 ug/ml, 300 s); IL-17A or MMP-9CAT in solution at 50, 100, 200 nM; 300 s association, 1800-2500 s dissociation; 30 C; PBS, 1% BSA, 0.05% Tween; 1:1 binding model. Particulars: both partners purified.

B1: MMP-9CAT (soluble MMP-9 catalytic domain) (enzyme)
chain: FQTFEGDLKWHHHNITYWIQNYSEDLPRAVIDDAFARAFALWSAVTPLTFTRVYSRDADIVIQFGVAEHGDGYPFDGKDGLLAHAFPPGPGIQGDAHFDDDELWSLGKGQGYSLFLVAAHEFGHALGLDHSSVPEALMYPMYRFTEGPPLHKDDVNGIRHLY
modifications: Active enzyme, catalytic and structural Zn2+ and Ca2+ (assay buffer has 5 mM CaCl2). Limits are not printed in the text given. Taken by convention from the MMP-9 catalytic domain lacking the …
B1 came in with a Kd of 1.65 ± 0.02 nM.

The term Kd denotes a measure of binding affinity in units of concentration.

These data come from publication PMC6033355, “A bi-specific inhibitor targeting IL-17A and MMP-9 reduces invasion and motility in MDA-MB-231 cells” (Oncotarget, 2018).
